According to patent publication US20150276766A1:

Target: T1, recombinant GDF11 (UniProt O95390)
T1 sequence (looked up): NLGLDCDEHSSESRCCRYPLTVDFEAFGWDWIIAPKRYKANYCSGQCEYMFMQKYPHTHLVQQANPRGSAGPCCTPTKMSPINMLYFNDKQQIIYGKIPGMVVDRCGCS
Assay: sandwich ELISA, plates coated with mActRIIA-Fc, detected with anti-GDF8/11 antibodies

lowest concentration detected in ELISA: 100 pg/mL
Substance: mActRIIA-Fc (extracellular domain of murine ActRIIA fused to a murine Fc domain; the murine counterpart of SEQ ID NO:7) (from UniProt P27038 21-135) (Fc fusion)
